Several values for one entry are separate records, joined by “and”; a condition that tells them apart may be missing. Identical values can stand only once. Each block holds one binder with its values, some of them ahead of it.
Experiments:
EGFR ECD (wild type) [1] = biological target: T1, EGFR ECD (wild type) (UniProt P00533 25-645, limits assumed); assay: SPR, Biacore 3000, ECD coupled to CM5 chip
T1 construct: extracellular domain; the cell lines carry human EGFR; also called wild type EGFR ECD; EGFR extracellular domain
Procedure: (§1) The ka, kd, and KD values were determined for the binding of two VHH domains to the ECDs of EGFR and EGFRvIII by surface plasmon resonance (SPR). The ECDs were coupled to BIACORE® CM5 chips and VHH domains were sequentially flowed over each protein in the BIACORE® 3000 (GE Healthcare).

EGFRvIII ECD [2] = biological target: T2, EGFRvIII ECD (UniProt P00533 25-645); assay: SPR, Biacore 3000, ECD coupled to CM5 chip
T2 construct: extracellular domain; Deletion mutant; also called vIII mutant EGFR ECD
Procedure: as §1

human EGFR wild type [3] = biological target: T3, human EGFR wild type (human, UniProt P00533 25-1210); assay: pull-down from NR6W lysate by His-tagged VHH on a nickel-chelate plate, Western blot with anti-EGFR mAb H11
T3 construct: whole, on cells; also called EGFR on NR6W cells; EGFR in NR6W lysate
Procedure: The VHH domains were allowed to bind to the plate wells for 16 hr at 4° C., and then the wells were washed 3 times with Tris-buffered saline containing 0.1% (v/v) TWEEN®-20 (TBST). NR6W lysate (450 μg) made with M-PER reagent (Pierce) plus EDTA-free protease inhibitors (Roche Applied Science) was added to each well and allowed to incubate for 16 hr at 4° C. The lysate was removed, and the wells were washed 15 times with TBST. Protein remaining on the well surface was eluted in SDS-PAGE sample buffer containing 1% (v/v) β-mercaptoethanol and 100 mM imidazole, preheated to 95° C. […] The blot was developed with SuperSignal West™ substrate (Pierce) and exposed to film.
NR6W lysate was added to each well and allowed to incubate for 16 hr at 4° C. The lysate was removed, the wells were washed and remaining protein eluted. Samples were subjected to SDS-PAGE and proteins were transferred to a PVDF membrane that was then probed for EGFR.

human EGFR wild type [4] = biological target: T3, human EGFR wild type; assay: saturation binding of 125I-labelled VHH122 on an EGFR-expressing cell, specific binding in CPM
EGFRvIII ECD [5] = biological target: T2, EGFRvIII ECD; assay: SPR, Biacore 3000, EGFRvIII ECD on CM5 chip, VHH at 0.6 µM
Procedure: as §1

EGFR ECD (wild type) [6] = biological target: T1, EGFR ECD (wild type); assay: SPR, Biacore 3000, EGFR ECD on CM5 chip, VHH at 1.0 µM
Procedure: as §1

EGFR ECD (wild type) [7] = biological target: T1, EGFR ECD (wild type); assay: SPR, Biacore 3000, ECD on CM5 chip; summary value
Procedure: as §1

EGFRvIII ECD [8] = biological target: T2, EGFRvIII ECD; assay: SPR, Biacore 3000, ECD on CM5 chip; summary value
Procedure: as §1

EGFRvIII ECD [9] = biological target: T2, EGFRvIII ECD; assay: SPR, Biacore 3000, EGFRvIII ECD on CM5 chip, VHH at 1.0 µM
Procedure: as §1

EGFR ECD (wild type) [10] = biological target: T1, EGFR ECD (wild type); assay: SPR, Biacore 3000, EGFR ECD on CM5 chip, VHH at 0.6 µM
Procedure: as §1

human EGFR wild type [11] = biological target: T3, human EGFR wild type; assay: phage format; assay not given
human EGFRvIII = biological target: T4, human EGFRvIII (human, UniProt P00533 25-1210); assay: phage format; assay not given
T4 construct: whole, on cells; Deletion mutant; also called EGFRvIII on NR6M cells; VIII mutant EGFR

binding result (EGFR ECD (wild type) [1]): no binding | binding result (EGFRvIII ECD [2]): no binding | binding result (human EGFR wild type [3]): no binding (tested: 20 ug VHH per well)
B1: RP2 (VHH)
VHH: EVQLQESGGGLVQAGGSLRLSCAASGSTFSNEPFGWYRGAPGKLRELVGTISAGGNTNYVDAVKGRFMISRDNGRRMVYLQMNNLRPDDTAVYYCWNRGYWGQGTQVTVSS
notes: Random library clone used as negative control, as free VHH; also called random VHH domain RP2; control VHH RP2; not shown: C-terminal 6-His and myc tags from pHEN1-H6

Kd (human EGFR wild type [4]): 46 nM
B2: [125I]VHH122 (VHH)
VHH: EVQLQESGGGLVQAGDSLRLSCLVSGRSFNSYTMGWFRQAPGKEREFVAAILWSGPTTYYADSVKGRFTISRDNAKNTVYLQMNSLKPEDTAVYYCAAALGVLVLAPGNVYSYWGQGTQVTVSS
modifications: 125I label; labelled residues not stated
notes: not shown: C-terminal 6-His and myc tags from pHEN1-H6

Ka (EGFRvIII ECD [5]): 3.01e+07 M⁻¹ | Kd (EGFRvIII ECD [5]): 33.2 nM | koff (EGFRvIII ECD [5]): 0.00304 s⁻¹ | kon (EGFRvIII ECD [5]): 91300 M⁻¹ s⁻¹ | Ka (EGFR ECD (wild type) [6]): 4.95e+07 M⁻¹ and 1.73e+07 M⁻¹ | Kd (EGFR ECD (wild type) [6]): 20.2 nM and 57.8 nM | koff (EGFR ECD (wild type) [6]): 0.00207 s⁻¹ and 0.00333 s⁻¹ | kon (EGFR ECD (wild type) [6]): 57600 M⁻¹ s⁻¹ and 102000 M⁻¹ s⁻¹ | Kd (EGFR ECD (wild type) [7]): ~40 nM | Kd (EGFRvIII ECD [8]): ~40 nM | Ka (EGFRvIII ECD [9]): 1.82e+07 M⁻¹ | Kd (EGFRvIII ECD [9]): 55 nM | koff (EGFRvIII ECD [9]): 0.00308 s⁻¹ | kon (EGFRvIII ECD [9]): 56100 M⁻¹ s⁻¹ | Ka (EGFR ECD (wild type) [10]): 2.58e+07 M⁻¹ | Kd (EGFR ECD (wild type) [10]): 38.7 nM | koff (EGFR ECD (wild type) [10]): 0.00318 s⁻¹ | kon (EGFR ECD (wild type) [10]): 82300 M⁻¹ s⁻¹
B3: VHH122 (VHH)
VHH: EVQLQESGGGLVQAGDSLRLSCLVSGRSFNSYTMGWFRQAPGKEREFVAAILWSGPTTYYADSVKGRFTISRDNAKNTVYLQMNSLKPEDTAVYYCAAALGVLVLAPGNVYSYWGQGTQVTVSS
notes: polyhistidine and myc tagged; also called VH122; not shown: C-terminal 6-His and myc tags from pHEN1-H6

binding result (human EGFR wild type [11]): binds | binding result (human EGFRvIII): no binding
B4: VHH03 (VHH)
VHH: EVKLQQSGGGLVQPGGSLTLSCVTSGFTFSTYGMDWVRQAPGKGFEWVASISFGGGITNYGDFVKGRFTISRDNAKNTLYLHMNGLKPDDTAVYYCQMGSKRGQGTQVTVSS

Ka (EGFR ECD (wild type) [6]): 1.34e+07 M⁻¹ | Kd (EGFR ECD (wild type) [6]): 74.7 nM | koff (EGFR ECD (wild type) [6]): 0.0115 s⁻¹ | kon (EGFR ECD (wild type) [6]): 154000 M⁻¹ s⁻¹
B5: VHH205 (VHH)
VHH: QVKLQESGGGLVQSGGSLRLSCIASGSTVSGNTMGWYRQAPGKQRELVAVISSVGVSNVAQSVKGRFAISRDNAKNTVYLQMSSLKPEDTAVYYCNALGTGRANWGQGTQVTVSS
notes: Free VHH used in SPR; not shown: C-terminal 6-His and myc tags from pHEN1-H6

Source: US20110200525A1 (published 2011)
